Data on 2 molecules can be found in patent US7176184B2, “Treatment for inflammatory bowel disease with a fibronectin polypeptide” (Biogen Idec MA Inc., priority 1992, dated 2007).

Data set [1] has as its system NOD mice receiving spleen cells from diabetic donors. As to the kind of experiment: Adoptive transfer of diabetes in NOD mice. The format is in vivo. An excerpt:
For the adoptive transfer of diabetes experiments, NOD mice were obtained from Taconic Farms (Germantown, N.Y.) or from the Joslin Diabetes Center (Boston, Mass.). Spontaneously diabetic (D) females of recent onset (13–20 weeks of age) were used as spleen cell donors and 8 week old nondiabetic (Y) females served as recipients. Spleen cells from 4 week old nondiabetic (Y) female donors which fail to transfer disease were used as a negative control.
Recipient mice were placed on acidified water (1:8400 dilution of concentrated HCl in water) one week prior to sublethal irradiation (775 rad) performed in split doses (300 rad, 300 rad, and 175 rad) on each of three days (day −2, −1, and the day of transfer), in order to minimize any incidence of intestinal infection subsequent to high dose irradiation (Gamma Cell 1000 Cesium ^137 source, Nordion International, Inc., Ontario, Canada). Spleens were harvested from diabetic donors or from nondiabetic controls, cell suspensions made and red cells lysed with Hemolytic Geys solution. […] Another group received PBS alone without cells transferred. The fusion protein LFA-3Ig (LFA-3TIP) was isolated and purified as described in PCT US92/02050 and Miller et al., 1993 [36]. […] Diabetes onset was monitored as described above.

The subject of data set [2] is dual responder allergic sheep. As to the kind of experiment: Sheep model of airways hyper-responsiveness (Ascaris suum antigen challenge). It counts as in vivo. The protocol: Experiments were performed essentially as described by Abraham et al.. […] To measure breathing mechanics and physical changes in the airways, the sheep were restrained in a prone position with heads immobilized. A balloon catheter was advanced through one nostril under topical anesthesia with 2% lidocaine solution to the lower esophagus, and a cuffed endotracheal tube was advanced through the other nostril (using a flexible fiberoptic bronchoscope as a guide) for the measurement of airway mechanics and during aerosol challenges. Pleural pressure was estimated with the esophageal balloon catheter (filled with 1 ml of air) positioned 5–10 cm from the gastroesophageal junction. In this position, end expiratory pleural pressure ranged between −2 and −5 cm H2O. Once the balloon was placed, it was secured so that it remained in position for the duration of the experiment. Lateral pressure in the trachea was measured with a sidehole catheter, (inner diam. 2.5 mm) advanced through and positioned distal to the tip of the endotracheal tube. Transpulmonary pressure (the difference between tracheal and pleural pressure) was measured with a differential pressure transducer catheter system (MP45, Validyne, Northridge, Calif.). […] Pulmonary resistance (RL) was measured by connecting the proximal end of the endotracheal tube to a Fleich pneumotachograph (Dyna Sciences, Blue Bell Pa.). Signals indicating flow and transpulmonary pressure were recorded on an oscilloscope recorder (Model DR-12; Electronics for Medicine, White Plains, N.Y.) linked to a computer for automatic calculation of pulmonary resistance (RL) from transpulmonary pressure, respiratory volume (obtained by digital integration) and flow by the mid-volume technique, analyzed from 5–10 breaths. Thoracic gas volume (Vtg) was measured immediately after determination of RL in a constant volume body plethysmograph. Specific lung resistance (SRL) was calculated from these values (SRL=Vtg×RL).
Airway responsiveness was determined by performing dose response curves to inhaled carbachol. The dose response curves were plotted using measurements of SRL taken immediately after inhalation of buffer (PBS) alone and after each consecutive administration of 10 breaths of increasing concentrations of carbachol in PBS. The concentrations of carbachol were 0.25%, 0.5%, 1.0%, 2.0% and 4.0% wt/vol in PBS. The provocation test was discontinued when SRL increased over 400% from the post-PBS value or after the highest carbachol concentration had been administered. Airway responsiveness was determined by calculating from the dose response curves the cumulative carbachol dose in breath units (BU) that increased specific lung resistance 400% over the post buffer value (PD400%). One breath unit was defined as one breath of a 1% wt/vol carbachol solution.
Each sheep was subjected to a trial as a control in which a placebo (PBS without additive) was used as a pretreatment 30 minutes before allergen challenge with Ascaris suum antigen (Greer Diagnostics, Lenoir, N.C.). The antigen solution was delivered as an aerosol using a disposable medical nebulizer (RAINDROP®, Puritan Bennett, Lenexa, Kans.) that provided an aerosol with a mass median aerodynamic diameter of 3.2 μM (geometric SD 1.9) as determined by an Andersen cascade impactor. The Ascaris suum extract was diluted in PBS to a concentration of 82,000 Protein Nitrogen Units(PNU)/ml. The output of the nebulizer was directed into a plastic T-tube, one end of which was connected to the inspiratory port of a Harvard respirator. A dosimeter connected to the nebulizer consisting of a solenoid valve and a 20 psi compressed air source and the solenoid valve was activated at the beginning of the inspiratory cycle of the Harvard respirator for one second. The aerosol delivered at a tidal volume of 500 ml and a rate of 20 breaths per min. for 20 min. Each sheep was challenged with an equivalent dose of antigen (400 breaths) in the control and VCAM1-IgG1 trials. […]

The next data set has as its system CTT VLA4 on CTT PBLs. Kind of data set: FACS analysis of binding of anti-VLA-4 monoclonal antibodies to CTT peripheral blood mononuclear leukocytes. The arrangement: species or system cotton top tamarin. As for the experimental part:
Blood samples (3 ml) from CTTs were heparinized and the CTT peripheral blood mononuclear leukocytes (PBLs) were isolated using a Ficoll-Hypaque gradient (Pharmacia) according to the manufacturer's instructions for isolation of human PBLs. CTT PBLs were examined for their ability to bind to the murine anti-human VLA-4 monoclonal antibodies HP1/2 and HP2/1 by FACS analysis using a Becton Dickenson FACStar and standard techniques (see, e.g., Lobb et al., 1991a).
A general note: A flow cytometer gives signals particle by particle.

For a further data set, the target named is VLA-4 (Homo sapiens, UniProt P13612). As to the kind of experiment: VLA-4-mediated T cell activation. The format is cell-based.
A further data set has as its system VCAM-1-expressing cells. Kind of data set: Leukocyte adhesion to VCAM-1-expressing cells. The format is cell-based.
In data set [3] the test system is cotton top tamarins (CTTs) exhibiting symptoms of spontaneous colitis. Kind of data set: Cotton top tamarin trials: acute inflammation index from colon biopsies. The format is in vivo. The arrangement: Day 0 AII (acute inflammation index) / Day 10 AII (acute inflammation index): scale not given here. The conditions noted are these: for Day 0 AII (acute inflammation index) / Day 10 AII (acute inflammation index): individual treated CTTs. The protocol:
Five CTTs received HP1/2 and five received placebo, by intravenous injection. The CTTs receiving HP1/2 were injected with 1 mg HP1/2 per day (i.e., about 2 mg/kg/day, based on approximate half-kilogram weight of a CTT) for eight days (on Days 0, 1, 2, 3, 4, 5, 6, and 7 of the trial). Colon tissue samples obtained from the animals were biopsied every other day (on Days 0, 2, 4, 6, 8, and 10 of the trial). Data from the biopsies were used to determine an acute inflammation index for each animal, giving a semi-quantitative analysis of the course of the colitis. (See, Madara et al..) The inflammation indices before the trial began (Day 0) and at the end of the trial at Day 10 are set forth in Table II, below: (“Treated CTTs” received antibody-HP1/2; “Control CTTs” received placebo) The trial described in Example III was repeated using 14 CTTs, 7 receiving HP1/2 and 7 receiving placebo.

Setting [4] is: 15 mg aerosol 2, 8 and 24 h after antigen challenge, listed as VCAM-Ig.
Setting [5] is: 30 mg aerosol 2 and 24 h after antigen challenge (optimal dose), listed as VCAM-Ig.
[6] abbreviates: 30 mg aerosol 30 min before and 8 h after antigen challenge, listed as VCAM-Ig.
Where [7] appears, read: 30 mg aerosol 30 min before antigen challenge.
Where [8] appears, read: 60 mg aerosol 30 min before antigen challenge, listed as VCAM-Ig.

“And” between values parts separate entries of the source, which are not always exact repeats. Equal entries are not always repeated. “Also recorded” adds a separate entry of the source.

Sequence of VLA-4 (P13612 34-1032): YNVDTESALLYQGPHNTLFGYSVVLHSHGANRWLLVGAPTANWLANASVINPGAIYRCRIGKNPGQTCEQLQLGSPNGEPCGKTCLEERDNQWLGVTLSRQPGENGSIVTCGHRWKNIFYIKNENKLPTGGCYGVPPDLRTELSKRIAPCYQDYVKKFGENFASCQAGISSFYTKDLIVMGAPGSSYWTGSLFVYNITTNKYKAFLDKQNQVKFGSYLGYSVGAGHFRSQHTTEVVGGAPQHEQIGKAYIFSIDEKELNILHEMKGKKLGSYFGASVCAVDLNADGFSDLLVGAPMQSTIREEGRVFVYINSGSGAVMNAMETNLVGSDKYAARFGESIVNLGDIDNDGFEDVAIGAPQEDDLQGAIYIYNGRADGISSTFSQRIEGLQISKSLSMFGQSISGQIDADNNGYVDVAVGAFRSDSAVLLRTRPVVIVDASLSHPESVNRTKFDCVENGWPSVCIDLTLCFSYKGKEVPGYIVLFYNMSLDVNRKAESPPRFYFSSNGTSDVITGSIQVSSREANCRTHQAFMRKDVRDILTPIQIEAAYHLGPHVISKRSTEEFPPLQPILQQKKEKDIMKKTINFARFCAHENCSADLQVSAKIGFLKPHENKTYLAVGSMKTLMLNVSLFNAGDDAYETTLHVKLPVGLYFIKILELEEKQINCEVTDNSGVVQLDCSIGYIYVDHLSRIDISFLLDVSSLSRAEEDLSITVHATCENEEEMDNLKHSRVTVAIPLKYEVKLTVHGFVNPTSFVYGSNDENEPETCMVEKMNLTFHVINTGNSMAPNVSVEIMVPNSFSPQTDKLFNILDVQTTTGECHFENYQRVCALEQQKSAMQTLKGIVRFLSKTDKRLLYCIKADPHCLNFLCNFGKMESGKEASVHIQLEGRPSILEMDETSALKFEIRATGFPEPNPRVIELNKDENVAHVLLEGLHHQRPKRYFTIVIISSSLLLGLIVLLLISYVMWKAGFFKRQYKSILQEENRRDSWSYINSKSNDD
Sequence of VLA-4 (P05556 21-798 partner): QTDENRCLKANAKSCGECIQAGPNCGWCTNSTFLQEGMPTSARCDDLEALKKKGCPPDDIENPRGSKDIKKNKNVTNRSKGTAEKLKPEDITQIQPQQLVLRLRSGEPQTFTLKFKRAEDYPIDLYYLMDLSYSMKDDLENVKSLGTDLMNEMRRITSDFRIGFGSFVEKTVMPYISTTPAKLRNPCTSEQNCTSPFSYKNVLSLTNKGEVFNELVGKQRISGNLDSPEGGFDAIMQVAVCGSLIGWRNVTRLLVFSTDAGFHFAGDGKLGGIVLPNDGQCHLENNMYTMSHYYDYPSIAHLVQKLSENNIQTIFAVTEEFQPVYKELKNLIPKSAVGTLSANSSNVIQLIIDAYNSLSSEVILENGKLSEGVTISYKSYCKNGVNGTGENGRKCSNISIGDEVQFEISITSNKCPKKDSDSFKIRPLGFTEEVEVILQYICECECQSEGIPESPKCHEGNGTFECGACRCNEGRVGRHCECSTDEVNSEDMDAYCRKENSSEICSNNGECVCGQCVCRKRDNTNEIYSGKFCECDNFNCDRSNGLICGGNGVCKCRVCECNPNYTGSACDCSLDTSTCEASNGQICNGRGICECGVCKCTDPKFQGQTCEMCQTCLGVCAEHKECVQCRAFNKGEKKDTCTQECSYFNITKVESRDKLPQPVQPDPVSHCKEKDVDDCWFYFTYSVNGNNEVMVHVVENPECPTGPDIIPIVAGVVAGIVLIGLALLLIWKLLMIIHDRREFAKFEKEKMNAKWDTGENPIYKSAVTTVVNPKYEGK

Turning to “VCAM 2D-IgG: soluble form of VCAM1: two N-terminal domains of VCAM1 fused to human IgG1 heavy chain constant region (hinge, CH2, CH3); SEQ ID NO: 5/12”, the “onset of diabetes in recipients of cells from diabetic donor mice” value in data set [1] (100 μg i.p. through day 17) is on record as “significantly inhibits the onset of diabetes”. For the same molecule, the “serum level of fusion protein (ELISA)” value in data set [1] (100 μg/0.2 ml i.p. twice weekly through day 17) is given as “sufficient to saturate VLA4-positive cells”. The incidence of diabetes in data set [1] (by day 30 post-transfer, recipients of cells from diabetic donors, 100 μg i.p. through day 17, n=5) is given as 60%. The “airways hyper-responsiveness (AHR)” value is given as “blockage of the AHR; also recorded: inhibition of AHR” in data set [2] (setting [4]); “complete blockage; also recorded: complete inhibition” in data set [2] (setting [5]); “no blockage; also recorded: no inhibition” in data set [2] (setting [6]); “no effect” in data set [2] (setting [7]); “blocked; also recorded: inhibition of AHR” in data set [2] (setting [8]). Besides, the “late phase response (LPR)” value is recorded as “partial blockage; also recorded: significant but partial inhibition” in data set [2] (setting [4]); “complete blockage; also recorded: complete inhibition” in data set [2] (setting [5]); “blocked completely; also recorded: complete inhibition” in data set [2] (setting [6]); “significant but partial inhibition” in data set [2] (setting [7]); “partial blockage; also recorded: significant but partial inhibition” in data set [2] (setting [8]). Moreover, the “late phase response (LPR) versus placebo control” value in data set [2] (all dosing regimens, ten animals) was “partial or complete inhibition”.

B1: HP1/2: murine anti-human VLA-4 monoclonal antibody (IgG1) obtained from Biogen, Inc.; VH/VK in SEQ ID NO: 1-4 (antibody, listed as Mus musculus, V domains shown)
VH: EVKLQQSGAELVKPGASVKLSCTASGFNIKDTYMHWVKQRPEQGLEWIGRIDPASGDTKYDPKFQVKATITADTSSNTAWLQLSSLTSEDTAVYYCADGMWVSTGYALDFWGQGTTVTVSS
VL: SIVMTQTPKFLLVSAGDRVTITCKASQSVTNDVAWYQQKPGQSPKLLIYYASNRYTGVPDRFTGSGYGTDFTFTISTVQAEDLAVYFCQQDYSSPYTFGGGTKLEI
On to B1, for which the “binding to CTT PBLs” value with CTT VLA4 on CTT PBLs is recorded as “bound”. Also, in the data set with VLA-4, the “VLA-4-mediated T cell activation” value is reported as “not to promote”. Moreover, the “leukocyte adhesion to VCAM-1-expressing cells” value in the data set with VCAM-1-expressing cells was “block”. In addition, in data set [3] (Example III, Day 0 to Day 10), the “change in acute inflammation index” value was “significant (p<0.01) decrease”. The “Day 0 AII (acute inflammation index)” value in data set [3] (Example III, before the trial began, 1 mg HP1/2 per day i.v. Days 0-7) is 2 (3×) and 1 (2×); in data set [3] (Example IV (repeat trial), Day 0) it was 2. Moreover, the “Day 10 AII (acute inflammation index)” value in data set [3] (Example III, end of trial, 1 mg HP1/2 per day i.v. Days 0-7) was 1 and 0 (4×); in data set [3] (Example IV (repeat trial), Day 10), 0 (5×) and 1 and 2. For the same molecule, the “Day 0 AII, MEAN” value is on record as 1.6 in data set [3] (Example III, mean of 5 treated CTTs, before the trial began) and 2.0 in data set [3] (Example IV, mean of 7 treated CTTs, Day 0). Besides, the “Day 10 AII, MEAN” value in data set [3] (Example III, mean of 5 treated CTTs, end of trial) amounted to 0.2; in data set [3] (Example IV, mean of 7 treated CTTs, Day 10), 0.43. Also, the “change in acute inflammation” value in data set [3] (Example IV, Day 0 to Day 10) is “significant decrease”. Also, in data set [3] (summary statement), the “inflammation of biopsied intestinal tissue” value is recorded as “significant reduction in inflammation”.
